T1: human Claudin 3 (human, UniProt O15551 1-220)
T1 construct: forced expression in DG44 or Ba/F3 cells, or endogenous on MCF7 cells; four-transmembrane tight junction protein; also called hCLDN3; hCLN3
T1 sequence: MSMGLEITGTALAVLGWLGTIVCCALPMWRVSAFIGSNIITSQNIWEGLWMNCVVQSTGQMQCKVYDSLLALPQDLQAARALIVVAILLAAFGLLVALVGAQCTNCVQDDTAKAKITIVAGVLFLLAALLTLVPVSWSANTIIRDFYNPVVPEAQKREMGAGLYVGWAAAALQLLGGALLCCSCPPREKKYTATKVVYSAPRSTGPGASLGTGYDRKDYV

T2: human Claudin 1 with C-terminal FLAG tag (human, UniProt O95832 1-211)
T2 construct: whole, on cells; forced expression in Ba/F3 cells; also called hCLDN1; hCLN1
T2 sequence (looked up): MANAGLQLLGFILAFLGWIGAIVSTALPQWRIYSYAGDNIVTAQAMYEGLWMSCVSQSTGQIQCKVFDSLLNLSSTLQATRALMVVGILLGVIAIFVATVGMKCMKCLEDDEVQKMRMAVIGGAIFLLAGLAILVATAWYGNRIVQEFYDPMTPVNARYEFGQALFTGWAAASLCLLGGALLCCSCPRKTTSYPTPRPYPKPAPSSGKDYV

T3: human Claudin 4 with C-terminal FLAG tag (human, UniProt O14493 1-209)
T3 construct: whole, on cells; forced expression in Ba/F3 cells; also called hCLDN4; hCLN4
T3 sequence (looked up): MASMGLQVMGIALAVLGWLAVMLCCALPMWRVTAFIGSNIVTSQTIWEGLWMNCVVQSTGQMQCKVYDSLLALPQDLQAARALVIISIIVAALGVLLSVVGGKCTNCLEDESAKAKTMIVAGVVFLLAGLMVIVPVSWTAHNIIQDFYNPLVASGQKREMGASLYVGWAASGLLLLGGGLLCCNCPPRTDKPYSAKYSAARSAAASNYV

T4: human Claudin 6 with C-terminal FLAG tag (human, UniProt P56747 1-220)
T4 construct: whole, on cells; forced expression in Ba/F3 cells; also called hCLDN6; hCLN6
T4 sequence (looked up): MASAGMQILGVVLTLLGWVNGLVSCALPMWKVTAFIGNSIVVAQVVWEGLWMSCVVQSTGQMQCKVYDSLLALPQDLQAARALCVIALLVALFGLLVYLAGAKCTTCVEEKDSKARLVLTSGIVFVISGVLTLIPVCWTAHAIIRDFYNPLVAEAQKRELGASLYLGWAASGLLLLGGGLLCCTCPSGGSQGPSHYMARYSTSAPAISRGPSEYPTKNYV

T5: mouse Claudin 3 (mouse, UniProt Q9Z0G9 1-219)
T5 construct: whole, on cells; also called mCLDN3; mCLN3
T5 sequence (looked up): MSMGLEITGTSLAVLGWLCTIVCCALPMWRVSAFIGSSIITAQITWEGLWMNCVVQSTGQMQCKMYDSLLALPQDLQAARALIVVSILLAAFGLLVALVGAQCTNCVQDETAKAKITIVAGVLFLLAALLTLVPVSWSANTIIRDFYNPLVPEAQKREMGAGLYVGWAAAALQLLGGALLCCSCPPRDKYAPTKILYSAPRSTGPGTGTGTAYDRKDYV


How the values were obtained:
human Claudin 3 [1] = target: T1, human Claudin 3; assay: flow cytometry, hCLDN3/DG44 cells, 1 ug/mL antibody
human Claudin 3 [2] = target: T1, human Claudin 3; assay: flow cytometry, hCLDN3/DG44 cells, 5 ug/mL antibody
[3] = target: T2, human Claudin 1 with C-terminal FLAG tag; assay: flow cytometry, hCLDN1/Ba/F3 cells, 2 ug/mL antibody
Experimental: (§1) A monoclonal antibody was added to the respective forced expression cells, and then incubated at 4° C. for 30 minutes. After incubation, the cells were washed once with a PBS solution containing 1% fetal bovine serum, then a 150-fold dilution of an FITC-goat anti-mouse IgG (H+L) antibody (Beckman Coulter) was added, and this was incubated at 4° C. for 30 minutes. The amount of antibodies bound per cell was measured using FACSCalibur, and the X geometric mean value, which is the geometric mean of the cell fluorescence intensity, was calculated using the accessory CellQuest Pro analysis software of FACSCalibur.
(§2) The cross reactivity for human Claudin 3, human Claudin 1, human Claudin 4, human Claudin 6, and mouse Claudin 3 forcedly expressed in Ba/F3 was evaluated using at a final antibody concentration of 2 μg/mL.

human Claudin 3 [4] = target: T1, human Claudin 3; assay: flow cytometry, hCLDN3/Ba/F3 cells, 2 ug/mL antibody
Experimental: as §1, §2

[5] = target: T3, human Claudin 4 with C-terminal FLAG tag; assay: flow cytometry, hCLDN4/Ba/F3 cells, 2 ug/mL antibody
Experimental: as §1, §2

[6] = target: T4, human Claudin 6 with C-terminal FLAG tag; assay: flow cytometry, hCLDN6/Ba/F3 cells, 2 ug/mL antibody
Experimental: as §1, §2

mouse Claudin 3 = target: T5, mouse Claudin 3; assay: flow cytometry, mCLDN3/Ba/F3 cells, 2 ug/mL antibody
Experimental: as §1, §2

human Claudin 3 [7] = target: T1, human Claudin 3; assay: flow cytometry, hCLDN3/DG44 cells, 0.1 ug/mL antibody
human Claudin 3 [8] = target: T1, human Claudin 3; assay: flow cytometry, MCF7 cells (endogenous Claudin 3), 1 ug/mL antibody
Experimental: as §1
(§3) The affinity of the antibodies to the MCF7 breast cancer cell line (ATCC, HTB-22), which endogenously expresses Claudin 3, was evaluated by the flow cytometry method.

human Claudin 3 [9] = target: T1, human Claudin 3; assay: flow cytometry, MCF7 cells (endogenous Claudin 3), 5 ug/mL antibody
Experimental: as §1, §3

Binder | X geometric mean (human Claudin 3 [1]) | X geometric mean (human Claudin 3 [2]) | X geometric mean [3] | X geometric mean (human Claudin 3 [4]) | X geometric mean [5] | X geometric mean [6] | X geometric mean (mouse Claudin 3) | X geometric mean (human Claudin 3 [7]) | X geometric mean (human Claudin 3 [8]) | X geometric mean (human Claudin 3 [9])
CDN04 (antibody, mouse IgG1, kappa, V domains shown, mouse monoclonal, IgG1/IgK; also called CDN4) VH: EVQLQQSGPELVKPGASMKISCKASGYSFTGYTMNWMKQGHGKNLEWIGLINPYNGGTSYNQKFKDKATLTLDKSSSSAYMELLSLTSEDSAVYYCARGSYGSSYFDYWGQGTTLTVSS VL: DIVMSQSPSSLAVSVGEKVTMSCKSSQSLLYGSNQKNYLAWYQQKPGQSPKLLIYWASTRESGVPDRFTGSGSGTDFTLTISSVKAEDLAVYYCQQYYNFPYTFGGGTKLEIKR | 180 | 667 | 11 | 366 | 14 | 9 | 16 | 28 | 47 | 130
CDN27 (antibody, V domains shown, mouse monoclonal, IgG2a/IgK) VH: EVQLQQSGPELVKPGASVKISCKASGYSFTGYFMNWVKQSHGKSLEWIGRINPYNGDTFYNQKFKGKATLTVDKSSSTAHMELRSLTSEDSAVYYCARSGDWYFDVWGAGTTVTVSS VL: DIVLTQSPASLAVSLGQRATISCRASKSVSTSSYSYMHWYQQKPGQPPKLLIKFASYLESGVPARFSGSGSGTDFTLNIHPVEEEDAATYYCQHSREFPRTFGGGTKLEIKR | 1790 | 2700 | 42 | 3340 | 302 | 25 | 50 | 308 | 202 | 310
CDN38 (antibody, V domains shown) VH: EVQLQQSGPELVKPGASVKMSCKASGYSFTGYFMNWVKQSHGKSLEWIGRINPYNGDTFYNQKFKGKATLTVDKSSSTAHMELRSLTSEDSALYYCARSGNYVMDYWGQGTSVTVSS VL: DIVLTQSPASLAVSLGQSVTISCRASESVEYYGTSLMQWYQQKPGQPPKLLIYGASNVESGVPARFSGSGSGTDFSLNIHPVEEDDIAMYFCQQSRKVPWTFGGGTKLEIKR | 215 | 258 | 7 | 142 | 74 | 9 | 115 | 207 | 63 | 61
CDN28 (antibody, mouse IgG1, kappa, V domains shown, mouse monoclonal, IgG1/IgK) VH: EVQLQQSGPELVKPGASVKISCKASGYSFTGYFMNWVKQSHGKSLEWLGRINPYNGDTFYNQKFKGKATLTVDKSSNTAHMELRSLTSEDSAVYYCARGDGYYVTSLAYWGQGTLVTVSA VL: NIVMTQSPKSMSMSVGERVTLSCKASENVVSYVSWFQQKPEQSPKLLIYGASNRYTGVPDRFTGSGSATDFTLTISSVQAEDLADYYCGQSYSYPLTFGAGTKLELKR | 1450 | 1990 | 12 | 1430 | 27 | 9 | – | 275 | 175 | 186
CDN35 (antibody, V domains shown, mouse monoclonal, IgG2a/IgK) VH: EVQLQQSGPELVKPGASVKMSCKASGYTFTDYYMNWVKQSHGKSLEWIGRVNPSNGGTSYNQKFKGKATLTVDKSLSTAYMQLNSLTSEDSAVYYCARGLAYYSNSFTYWGQGTLVTVSA VL: KIVLTQSPASLAVSLRQRATISCRASESVDSYGNSFMHWYQQKPGQPPKLLIYRASNLESGVPARFSGSGSRTDFTLTIDPVEADDAATYYCQQNNEDPWTFGGGTKLEIKR | 869 | 2300 | – | 2150 | 59 | 36 | 1310 | 120 | 176 | 380
CDN16 (antibody, mouse IgG2b, kappa, V domains shown, mouse monoclonal, IgG2b/IgK) VH: EVQLQQSGPELVKPGASVKMSCKASGYTFTDYYMNWVKQSHGKSLEWIGRVNPSNGGTSYNQKFKGKATLTVDKSLSTAYMQLNSLTSEDSAVYYCARGLAYYSNSFVYWGQGTLVTVSA VL: KIVLTQSPASLAVSLRQRATISCRASESVDSYGNSFMHWYQQKPGQPPKLLIYRASNLESGVPARFSGSGSRTDFTLTIDPVEADDAATYYCQQNNEDPWTFGGGTKLEIKR | 928 | 2480 | – | 1980 | 11 | 9 | 1270 | 125 | 125 | 361

Reference: patent publication US20100111852A1 (FORERUNNER PHARMA RESEARCH, published 2010)
